Experiments:
HLA-C*12:03 = experiment: IEDB peptide-MHC binding, purified MHC/direct/fluorescence; filed as Kd, often an IC50 or EC50 that approximates it; ≥ and ≤ were set here for values at or beyond the usual limits of such assays
HLA-C*03:03 = experiment: as above
HLA-B*14:02 = experiment: IEDB peptide-MHC binding, purified MHC/competitive/fluorescence; ≥ and ≤ were set here for values at or beyond the usual limits of such assays; settings: source organism: Human immunodeficiency virus 1
HLA-B*08:01 = experiment: IEDB peptide-MHC binding, purified MHC/direct/fluorescence; filed as Kd, often an IC50 or EC50 that approximates it; ≥ and ≤ were set here for values at or beyond the usual limits of such assays
HLA-C*14:02 = experiment: as above
HLA-C*07:02 = experiment: as above
HLA-A*24:02 = experiment: IEDB peptide-MHC binding, purified MHC/competitive/fluorescence; filed as Kd, often an IC50 or EC50 that approximates it; ≥ and ≤ were set here for values at or beyond the usual limits of such assays; settings: source organism: Entamoeba histolytica HM-1:IMSS
HLA-B*15:02 = experiment: as above
HLA-A*68:02 = experiment: IEDB peptide-MHC binding, purified MHC/direct/fluorescence; filed as Kd, often an IC50 or EC50 that approximates it; ≥ and ≤ were set here for values at or beyond the usual limits of such assays; settings: source organism: Ebola virus Yambio0403
HLA-A*02:16 = experiment: as above; settings: source organism: Ebola virus Yambio0403
HLA-A*02:12 = experiment: as above; settings: source organism: Ebola virus Yambio0403
HLA-A*02:19 = experiment: as above; settings: source organism: Ebola virus Yambio0403
HLA-A*03:01 [1] = experiment: as above; settings: source organism: Ebola virus Yambio0403
HLA-A*02:03 [2] = experiment: as above; settings: source organism: Ebola virus Yambio0403
HLA-B*35:01 = experiment: IEDB peptide-MHC binding, purified MHC/competitive/fluorescence; filed as Kd, often an IC50 or EC50 that approximates it; ≥ and ≤ were set here for values at or beyond the usual limits of such assays
HLA-A*69:01 = experiment: as above; settings: source organism: Zaire ebolavirus
HLA-B*39:01 = experiment: as above; settings: source organism: Zaire ebolavirus
HLA-B*57:01 = experiment: as above
HLA-B*46:01 = experiment: as above; settings: source organism: Zaire ebolavirus
HLA-B*27:05 = experiment: as above; settings: source organism: Zaire ebolavirus
HLA-B*51:01 = experiment: as above; settings: source organism: Zaire ebolavirus
HLA-A*02:01 = experiment: as above; settings: source organism: Zaire ebolavirus
HLA-A*26:01 = experiment: as above; settings: source organism: Zaire ebolavirus
HLA-B*18:01 = experiment: as above; settings: source organism: Human immunodeficiency virus 1
HLA-B*15:17 = experiment: as above; settings: source organism: Human immunodeficiency virus 1
HLA-A*26:02 = experiment: as above; settings: source organism: Human immunodeficiency virus 1
HLA-A*02:06 = experiment: as above; settings: source organism: Human immunodeficiency virus 1
HLA-B*15:01 = experiment: as above
HLA-A*01:01 = experiment: as above
HLA-A*02:03 [3] = experiment: as above; settings: source organism: Human immunodeficiency virus 1
HLA-A*11:01 = experiment: as above; settings: source organism: Human immunodeficiency virus 1
HLA-A*30:01 = experiment: as above; settings: source organism: Human immunodeficiency virus 1
HLA-B*58:01 = experiment: as above; settings: source organism: Escherichia coli O139:H28 str. E24377A
HLA-A*03:01 [4] = experiment: as above; settings: source organism: Escherichia coli O139:H28 str. E24377A
HLA-C*05:01 = experiment: IEDB peptide-MHC binding, purified MHC/direct/fluorescence; filed as Kd, often an IC50 or EC50 that approximates it; ≥ and ≤ were set here for values at or beyond the usual limits of such assays; settings: source organism: Influenza A virus (A/duck/Bavaria/1/1977(H1N1))
HLA-B*07:02 = experiment: IEDB peptide-MHC binding, purified MHC/competitive/fluorescence; filed as Kd, often an IC50 or EC50 that approximates it; ≥ and ≤ were set here for values at or beyond the usual limits of such assays; settings: source organism: Influenza A virus (A/duck/Bavaria/1/1977(H1N1))
HLA-C*15:02 = experiment: IEDB peptide-MHC binding, purified MHC/direct/fluorescence; filed as Kd, often an IC50 or EC50 that approximates it; ≥ and ≤ were set here for values at or beyond the usual limits of such assays; settings: source organism: Mycobacterium tuberculosis H37Ra
[5] = source organism: Yellow fever virus
[6] = source organism: Entamoeba histolytica HM-1:IMSS
[7] = source organism: Zaire ebolavirus
[8] = source organism: Human immunodeficiency virus 1
[9] = source organism: Escherichia coli O139:H28 str. E24377A
[10] = source organism: Mycobacterium tuberculosis H37Ra

Sequence: VAIDRPAEV
- Kd (HLA-C*12:03; [5]): ≤ 1 nM
- Kd (HLA-C*03:03; [5]): 2 nM

Sequence: KHYMLKHL
- IC50 (HLA-B*14:02): ≥ 20 µM

Sequence: IMYNYPAML
- Kd (HLA-B*08:01; source organism: Mycobacterium tuberculosis): 2.68 µM
- Kd (HLA-C*03:03; source organism: Mycobacterium leprae): 45 nM

Sequence: KYNSHHFTF
- Kd (HLA-C*14:02; [6]): 80 nM
- Kd (HLA-C*07:02; [6]): 2 nM
- Kd (HLA-A*24:02): ≤ 0.1 nM

Sequence: TQHFGWHAF
- Kd (HLA-B*15:02; source organism: Vibrio antiquarius): 21.4 nM

Sequence: ELYPGDSAH
- Kd (HLA-B*15:02; source organism: Clostridium botulinum A str. ATCC 3502): 615 nM

Sequence: FRYEFTAPF
- Kd (HLA-A*68:02): ≥ 20 µM
- Kd (HLA-A*02:16): ≥ 20 µM
- Kd (HLA-A*02:12): ≥ 20 µM
- Kd (HLA-A*02:19): ≥ 20 µM
- Kd (HLA-C*14:02; [7]): 209 nM
- Kd (HLA-A*03:01 [1]): ≥ 20 µM
- Kd (HLA-A*02:03 [2]): ≥ 20 µM
- Kd (HLA-B*08:01; [7]): 6.57 µM
- Kd (HLA-B*35:01; [7]): 952 nM
- Kd (HLA-A*69:01): ≥ 20 µM
- Kd (HLA-B*39:01): 0.7 nM
- Kd (HLA-B*57:01; [7]): ≥ 20000 nM
- Kd (HLA-B*46:01): ≥ 20 µM
- Kd (HLA-B*27:05): 724 nM
- Kd (HLA-B*51:01): ≥ 20 µM
- Kd (HLA-A*02:01): ≥ 20 µM
- Kd (HLA-A*26:01): ≥ 20 µM

Sequence: NLYGWHLPL
- Kd (HLA-B*15:02; source organism: Escherichia coli APEC O1): 9.5 nM

Sequence: KSLFNTIAVLY
- Kd (HLA-B*35:01; [8]): 1010 nM
- Kd (HLA-B*18:01): 260 nM
- Kd (HLA-B*15:17): 21.3 nM
- Kd (HLA-A*26:02): 1110 nM
- Kd (HLA-A*02:06): 206 nM
- Kd (HLA-B*15:01; [8]): 1200 nM
- Kd (HLA-B*57:01; [8]): 190 nM
- Kd (HLA-A*01:01; [8]): 2130 nM
- Kd (HLA-A*02:03 [3]): 566 nM
- Kd (HLA-A*11:01): 1920 nM
- Kd (HLA-A*30:01): 1350 nM

Sequence: LANWCLLNY
- Kd (HLA-B*35:01; [9]): 4.6 nM
- Kd (HLA-B*15:01; [9]): 2380 nM
- Kd (HLA-A*01:01; [9]): 1670 nM
- Kd (HLA-B*58:01): 104 nM
- Kd (HLA-A*03:01 [4]): ≥ 20 µM

Sequence: ILLFPLPSF
- Kd (HLA-B*15:02; [6]): 2060 nM

Sequence: LPFQNIHPI
- Kd (HLA-C*07:02; source organism: Influenza A virus (A/duck/Bavaria/1/1977(H1N1))): ≥ 20000 nM
- Kd (HLA-C*05:01): ≥ 20 µM
- Kd (HLA-B*07:02): 104 nM

Sequence: KAAGAAVAL
- Kd (HLA-C*12:03; [10]): 76 nM
- Kd (HLA-C*03:03; [10]): 2 nM
- Kd (HLA-C*15:02): 1770 nM
